From US20180155406A1 (Sanofi, published 2018)
Numbered stars: 1 amine (or outer) side, 2 acyl side, 3 side chain; on linkers, the order of the positions; unused ones are H or OH. Square brackets hold non-standard residues; d marks the D form. Side chains are listed from the residue outwards. Ends that are not written are not given here. * marks the point of attachment. γGlu = O=C(O)[C@H](CCC(=O)[*:2])N[*:1]; Stearoyl = CCCCCCCCCCCCCCCCCC(=O)*; Palmitoyl = CCCCCCCCCCCCCCCC(=O)*; AEEA = NCCOCCOCC(=O)O; Aib = CC(C)(N)C(=O)O

T1: human GIP receptor (human, UniProt P48546 22-466)
T1 sequence (looked up): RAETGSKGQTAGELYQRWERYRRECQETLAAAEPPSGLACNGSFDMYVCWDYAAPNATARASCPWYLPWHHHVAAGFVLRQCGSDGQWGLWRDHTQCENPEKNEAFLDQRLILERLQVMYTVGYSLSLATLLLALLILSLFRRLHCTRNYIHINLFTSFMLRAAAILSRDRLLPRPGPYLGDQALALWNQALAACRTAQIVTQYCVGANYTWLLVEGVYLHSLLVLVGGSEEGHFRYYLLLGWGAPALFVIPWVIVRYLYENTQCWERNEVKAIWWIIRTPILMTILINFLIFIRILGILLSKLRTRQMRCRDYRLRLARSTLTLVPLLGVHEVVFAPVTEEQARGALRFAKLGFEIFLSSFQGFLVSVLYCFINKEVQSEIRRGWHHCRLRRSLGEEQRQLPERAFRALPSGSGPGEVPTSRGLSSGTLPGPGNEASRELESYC


Experiments:
Assay in all cases: cell-based or functional assay
[1] = biological target: human glucagon receptor (human, UniProt P47871 26-477)
Sequence of human glucagon receptor (P47871 26-477): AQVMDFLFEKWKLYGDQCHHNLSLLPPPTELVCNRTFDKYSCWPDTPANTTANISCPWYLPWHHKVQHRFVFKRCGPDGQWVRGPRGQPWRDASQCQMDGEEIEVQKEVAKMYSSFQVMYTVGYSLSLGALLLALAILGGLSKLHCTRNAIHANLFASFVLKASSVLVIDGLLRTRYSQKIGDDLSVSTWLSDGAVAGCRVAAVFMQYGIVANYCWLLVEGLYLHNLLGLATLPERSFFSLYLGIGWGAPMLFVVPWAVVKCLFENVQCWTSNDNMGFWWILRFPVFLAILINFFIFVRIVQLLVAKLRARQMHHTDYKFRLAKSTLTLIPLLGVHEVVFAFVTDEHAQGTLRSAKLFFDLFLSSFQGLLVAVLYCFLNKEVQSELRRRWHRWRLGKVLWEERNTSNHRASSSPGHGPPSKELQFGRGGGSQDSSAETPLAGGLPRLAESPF

[2] = biological target: T1, human GIP receptor
[3] = biological target: human GLP-1 receptor (human, UniProt P43220 24-463)

| Binder | EC50 hGlucagon R (cAMP formation) [1] [pM] | EC50 hGIP R (cAMP formation) [2] [pM] | EC50 hGLP-1R (cAMP formation) [3] [pM] |
| --- | --- | --- | --- |
| H[Aib]HGTFTSDLSKLK([γGlu-Stearoyl])EEQRQ[Aib]EFIEWLKA[dA]GPPS[Aib]KPPPK-NH2 (N-terminus assumed; SMILES CCCCCCCCCCCCCCCCCC(=O)N[C@@H](CCC(=O)NCCCC[C@H](NC(=O)[C@H](CC(C)C)NC(=O)[C@H](CCCCN)NC(=O)[C@H](CO)NC(=O)[C@H](CC(C)C)NC(=O)[C@H](CC(=O)O)NC(=O)[C@H](CO)NC(=O)[C@@H](NC(=O)[C@H](Cc1ccccc1)NC(=O)[C@@H](NC(=O)CNC(=O)[C@H](Cc1c[nH]cn1)NC(=O)C(C)(C)NC(=O)[C@@H](N)Cc1c[nH]cn1)[C@@H](C)O)[C@@H](C)O)C(=O)N[C@@H](CCC(=O)O)C(=O)N[C@@H](CCC(=O)O)C(=O)N[C@@H](CCC(N)=O)C(=O)N[C@@H](CCCNC(=N)N)C(=O)N[C@@H](CCC(N)=O)C(=O)NC(C)(C)C(=O)N[C@@H](CCC(=O)O)C(=O)N[C@@H](Cc1ccccc1)C(=O)N[C@H](C(=O)N[C@@H](CCC(=O)O)C(=O)N[C@@H](Cc1c[nH]c2ccccc12)C(=O)N[C@@H](CC(C)C)C(=O)N[C@@H](CCCCN)C(=O)N[C@@H](C)C(=O)N[C@H](C)C(=O)NCC(=O)N1CCC[C@H]1C(=O)N1CCC[C@H]1C(=O)N[C@@H](CO)C(=O)NC(C)(C)C(=O)N[C@@H](CCCCN)C(=O)N1CCC[C@H]1C(=O)N1CCC[C@H]1C(=O)N1CCC[C@H]1C(=O)N[C@@H](CCCCN)C(N)=O)[C@@H](C)CC)C(=O)O) [SEQ ID NO: 17] | 5.3 | 7.3 | 6.4 |
| H[Aib]HGTFTSDLSKLK([γGlu-γGlu-AEEA-Palmitoyl])EEQRQKEFIEWLKA[dA]GHPS[Aib]KPPPK-NH2 (N-terminus assumed; SMILES CCCCCCCCCCCCCCCC(=O)NCCOCCOCC(=O)N[C@@H](CCC(=O)N[C@@H](CCC(=O)NCCCC[C@H](NC(=O)[C@H](CC(C)C)NC(=O)[C@H](CCCCN)NC(=O)[C@H](CO)NC(=O)[C@H](CC(C)C)NC(=O)[C@H](CC(=O)O)NC(=O)[C@H](CO)NC(=O)[C@@H](NC(=O)[C@H](Cc1ccccc1)NC(=O)[C@@H](NC(=O)CNC(=O)[C@H](Cc1c[nH]cn1)NC(=O)C(C)(C)NC(=O)[C@@H](N)Cc1c[nH]cn1)[C@@H](C)O)[C@@H](C)O)C(=O)N[C@@H](CCC(=O)O)C(=O)N[C@@H](CCC(=O)O)C(=O)N[C@@H](CCC(N)=O)C(=O)N[C@@H](CCCNC(=N)N)C(=O)N[C@@H](CCC(N)=O)C(=O)N[C@@H](CCCCN)C(=O)N[C@@H](CCC(=O)O)C(=O)N[C@@H](Cc1ccccc1)C(=O)N[C@H](C(=O)N[C@@H](CCC(=O)O)C(=O)N[C@@H](Cc1c[nH]c2ccccc12)C(=O)N[C@@H](CC(C)C)C(=O)N[C@@H](CCCCN)C(=O)N[C@@H](C)C(=O)N[C@H](C)C(=O)NCC(=O)N[C@@H](Cc1c[nH]cn1)C(=O)N1CCC[C@H]1C(=O)N[C@@H](CO)C(=O)NC(C)(C)C(=O)N[C@@H](CCCCN)C(=O)N1CCC[C@H]1C(=O)N1CCC[C@H]1C(=O)N1CCC[C@H]1C(=O)N[C@@H](CCCCN)C(N)=O)[C@@H](C)CC)C(=O)O)C(=O)O) [SEQ ID NO: 15] | 4.5 | 1.8 | 1.1 |
| H[Aib]HGTFTSDLSKLK([γGlu-γGlu-AEEA-Palmitoyl])EEQRQKEFIEWLKAGGHPS[Aib]KPPPK-NH2 (N-terminus assumed; SMILES CCCCCCCCCCCCCCCC(=O)NCCOCCOCC(=O)N[C@@H](CCC(=O)N[C@@H](CCC(=O)NCCCC[C@H](NC(=O)[C@H](CC(C)C)NC(=O)[C@H](CCCCN)NC(=O)[C@H](CO)NC(=O)[C@H](CC(C)C)NC(=O)[C@H](CC(=O)O)NC(=O)[C@H](CO)NC(=O)[C@@H](NC(=O)[C@H](Cc1ccccc1)NC(=O)[C@@H](NC(=O)CNC(=O)[C@H](Cc1c[nH]cn1)NC(=O)C(C)(C)NC(=O)[C@@H](N)Cc1c[nH]cn1)[C@@H](C)O)[C@@H](C)O)C(=O)N[C@@H](CCC(=O)O)C(=O)N[C@@H](CCC(=O)O)C(=O)N[C@@H](CCC(N)=O)C(=O)N[C@@H](CCCNC(=N)N)C(=O)N[C@@H](CCC(N)=O)C(=O)N[C@@H](CCCCN)C(=O)N[C@@H](CCC(=O)O)C(=O)N[C@@H](Cc1ccccc1)C(=O)N[C@H](C(=O)N[C@@H](CCC(=O)O)C(=O)N[C@@H](Cc1c[nH]c2ccccc12)C(=O)N[C@@H](CC(C)C)C(=O)N[C@@H](CCCCN)C(=O)N[C@@H](C)C(=O)NCC(=O)NCC(=O)N[C@@H](Cc1c[nH]cn1)C(=O)N1CCC[C@H]1C(=O)N[C@@H](CO)C(=O)NC(C)(C)C(=O)N[C@@H](CCCCN)C(=O)N1CCC[C@H]1C(=O)N1CCC[C@H]1C(=O)N1CCC[C@H]1C(=O)N[C@@H](CCCCN)C(N)=O)[C@@H](C)CC)C(=O)O)C(=O)O) [SEQ ID NO: 14] | 3.4 | 1.2 | 0.9 |
| H[Aib]HGTFTSDLSKLK([γGlu-Palmitoyl])EEQRQ[Aib]EFIEWLKA[dA]GPPS[Aib]KPPPK-NH2 (N-terminus assumed; SMILES CCCCCCCCCCCCCCCC(=O)N[C@@H](CCC(=O)NCCCC[C@H](NC(=O)[C@H](CC(C)C)NC(=O)[C@H](CCCCN)NC(=O)[C@H](CO)NC(=O)[C@H](CC(C)C)NC(=O)[C@H](CC(=O)O)NC(=O)[C@H](CO)NC(=O)[C@@H](NC(=O)[C@H](Cc1ccccc1)NC(=O)[C@@H](NC(=O)CNC(=O)[C@H](Cc1c[nH]cn1)NC(=O)C(C)(C)NC(=O)[C@@H](N)Cc1c[nH]cn1)[C@@H](C)O)[C@@H](C)O)C(=O)N[C@@H](CCC(=O)O)C(=O)N[C@@H](CCC(=O)O)C(=O)N[C@@H](CCC(N)=O)C(=O)N[C@@H](CCCNC(=N)N)C(=O)N[C@@H](CCC(N)=O)C(=O)NC(C)(C)C(=O)N[C@@H](CCC(=O)O)C(=O)N[C@@H](Cc1ccccc1)C(=O)N[C@H](C(=O)N[C@@H](CCC(=O)O)C(=O)N[C@@H](Cc1c[nH]c2ccccc12)C(=O)N[C@@H](CC(C)C)C(=O)N[C@@H](CCCCN)C(=O)N[C@@H](C)C(=O)N[C@H](C)C(=O)NCC(=O)N1CCC[C@H]1C(=O)N1CCC[C@H]1C(=O)N[C@@H](CO)C(=O)NC(C)(C)C(=O)N[C@@H](CCCCN)C(=O)N1CCC[C@H]1C(=O)N1CCC[C@H]1C(=O)N1CCC[C@H]1C(=O)N[C@@H](CCCCN)C(N)=O)[C@@H](C)CC)C(=O)O) [SEQ ID NO: 16] | 4.3 | 3.7 | 7.1 |
| H[Aib]HGTFTSDLSKLK([γGlu-Stearoyl])EEQRQ[Aib]EFIEWLKAGGPPS[Aib]KPPPK-NH2 (N-terminus assumed; SMILES CCCCCCCCCCCCCCCCCC(=O)N[C@@H](CCC(=O)NCCCC[C@H](NC(=O)[C@H](CC(C)C)NC(=O)[C@H](CCCCN)NC(=O)[C@H](CO)NC(=O)[C@H](CC(C)C)NC(=O)[C@H](CC(=O)O)NC(=O)[C@H](CO)NC(=O)[C@@H](NC(=O)[C@H](Cc1ccccc1)NC(=O)[C@@H](NC(=O)CNC(=O)[C@H](Cc1c[nH]cn1)NC(=O)C(C)(C)NC(=O)[C@@H](N)Cc1c[nH]cn1)[C@@H](C)O)[C@@H](C)O)C(=O)N[C@@H](CCC(=O)O)C(=O)N[C@@H](CCC(=O)O)C(=O)N[C@@H](CCC(N)=O)C(=O)N[C@@H](CCCNC(=N)N)C(=O)N[C@@H](CCC(N)=O)C(=O)NC(C)(C)C(=O)N[C@@H](CCC(=O)O)C(=O)N[C@@H](Cc1ccccc1)C(=O)N[C@H](C(=O)N[C@@H](CCC(=O)O)C(=O)N[C@@H](Cc1c[nH]c2ccccc12)C(=O)N[C@@H](CC(C)C)C(=O)N[C@@H](CCCCN)C(=O)N[C@@H](C)C(=O)NCC(=O)NCC(=O)N1CCC[C@H]1C(=O)N1CCC[C@H]1C(=O)N[C@@H](CO)C(=O)NC(C)(C)C(=O)N[C@@H](CCCCN)C(=O)N1CCC[C@H]1C(=O)N1CCC[C@H]1C(=O)N1CCC[C@H]1C(=O)N[C@@H](CCCCN)C(N)=O)[C@@H](C)CC)C(=O)O) [SEQ ID NO: 19] | 3.1 | 4 | 6.1 |
| H[Aib]HGTFTSDLSKLK([γGlu-Palmitoyl])EEQRQ[Aib]EFIEWLKAGGPPS[Aib]KPPPK-NH2 (N-terminus assumed; SMILES CCCCCCCCCCCCCCCC(=O)N[C@@H](CCC(=O)NCCCC[C@H](NC(=O)[C@H](CC(C)C)NC(=O)[C@H](CCCCN)NC(=O)[C@H](CO)NC(=O)[C@H](CC(C)C)NC(=O)[C@H](CC(=O)O)NC(=O)[C@H](CO)NC(=O)[C@@H](NC(=O)[C@H](Cc1ccccc1)NC(=O)[C@@H](NC(=O)CNC(=O)[C@H](Cc1c[nH]cn1)NC(=O)C(C)(C)NC(=O)[C@@H](N)Cc1c[nH]cn1)[C@@H](C)O)[C@@H](C)O)C(=O)N[C@@H](CCC(=O)O)C(=O)N[C@@H](CCC(=O)O)C(=O)N[C@@H](CCC(N)=O)C(=O)N[C@@H](CCCNC(=N)N)C(=O)N[C@@H](CCC(N)=O)C(=O)NC(C)(C)C(=O)N[C@@H](CCC(=O)O)C(=O)N[C@@H](Cc1ccccc1)C(=O)N[C@H](C(=O)N[C@@H](CCC(=O)O)C(=O)N[C@@H](Cc1c[nH]c2ccccc12)C(=O)N[C@@H](CC(C)C)C(=O)N[C@@H](CCCCN)C(=O)N[C@@H](C)C(=O)NCC(=O)NCC(=O)N1CCC[C@H]1C(=O)N1CCC[C@H]1C(=O)N[C@@H](CO)C(=O)NC(C)(C)C(=O)N[C@@H](CCCCN)C(=O)N1CCC[C@H]1C(=O)N1CCC[C@H]1C(=O)N1CCC[C@H]1C(=O)N[C@@H](CCCCN)C(N)=O)[C@@H](C)CC)C(=O)O) [SEQ ID NO: 18] | 2.8 | 2 | 5.3 |
